Test results as given in patent US20130005646A1 (Novo Nordisk, published 2013).
Starred links: 1 amine or outer side, 2 acyl side, 3 side chain; linkers in the order of their positions; H or OH if unused. Positions of bridges follow the written chain, without caps; N, C: chain ends. *: point of attachment. X1 = (S)‑4‑Carboxy‑4‑(19-carboxynonadecanoylamino)butyryl, O=C(O)CCCCCCCCCCCCCCCCCCC(=O)N[C@@H](CCC(=O)*)C(=O)O; C20 diacid = O=C(O)CCCCCCCCCCCCCCCCCCC(=O)*; γGlu = O=C(O)[C@H](CCC(=O)[*:2])N[*:1]

T1: human amylin 3(a) receptor (human calcitonin receptor + RAMP-3) (human, UniProt P30988 25-474; O60896 24-148)
T1 sequence (looked up) 1: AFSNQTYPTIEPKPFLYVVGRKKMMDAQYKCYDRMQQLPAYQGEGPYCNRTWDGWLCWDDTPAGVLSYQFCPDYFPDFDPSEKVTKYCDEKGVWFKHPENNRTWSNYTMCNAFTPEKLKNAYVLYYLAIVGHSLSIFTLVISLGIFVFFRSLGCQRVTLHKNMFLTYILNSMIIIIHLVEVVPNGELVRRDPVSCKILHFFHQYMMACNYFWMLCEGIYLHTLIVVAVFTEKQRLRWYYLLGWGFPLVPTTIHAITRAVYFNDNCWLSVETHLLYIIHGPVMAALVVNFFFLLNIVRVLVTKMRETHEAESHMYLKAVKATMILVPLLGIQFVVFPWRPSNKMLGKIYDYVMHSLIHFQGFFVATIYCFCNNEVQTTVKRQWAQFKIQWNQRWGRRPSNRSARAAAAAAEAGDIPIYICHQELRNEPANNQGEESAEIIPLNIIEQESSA
T1 sequence (looked up) 2: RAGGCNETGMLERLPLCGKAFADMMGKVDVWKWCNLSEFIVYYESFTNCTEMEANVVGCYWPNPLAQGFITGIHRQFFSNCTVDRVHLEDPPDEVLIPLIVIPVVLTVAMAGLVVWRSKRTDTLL

T2: human calcitonin (a) receptor (human, UniProt P30988 25-474)
T2 sequence (looked up): T1 sequence (looked up) 1

B1: N-alpha-[(S)-4-Carboxy-4-(19-carboxynonadecanoylamino)butyryl]-[His1,Glu14,Ser21,Ser28,Ser29,His35]-pramlintide (peptide)
peptide: {C20 diacid-γGlu}-HCNTATCATQRLAEFLVHSSSNFGPILSSTNVGSHTY-NH2
modifications: disulfide 2-7
SMILES: CC[C@H](C)[C@H](NC(=O)[C@@H]1CCCN1C(=O)CNC(=O)[C@H](Cc1ccccc1)NC(=O)[C@H](CC(N)=O)NC(=O)[C@H](CO)NC(=O)[C@H](CO)NC(=O)[C@H](CO)NC(=O)[C@H](Cc1c[nH]cn1)NC(=O)[C@@H](NC(=O)[C@H](CC(C)C)NC(=O)[C@H](Cc1ccccc1)NC(=O)[C@H](CCC(=O)O)NC(=O)[C@H](C)NC(=O)[C@H](CC(C)C)NC(=O)[C@H](CCCNC(=N)N)NC(=O)[C@H](CCC(N)=O)NC(=O)[C@@H](NC(=O)[C@H](C)NC(=O)[C@@H]1CSSC[C@H](NC(=O)[C@H](Cc2c[nH]cn2)NC(=O)CC[C@H](NC(=O)CCCCCCCCCCCCCCCCCCC(=O)O)C(=O)O)C(=O)N[C@@H](CC(N)=O)C(=O)N[C@@H]([C@@H](C)O)C(=O)N[C@@H](C)C(=O)N[C@@H]([C@@H](C)O)C(=O)N1)[C@@H](C)O)C(C)C)C(=O)N[C@@H](CC(C)C)C(=O)N[C@@H](CO)C(=O)N[C@@H](CO)C(=O)N[C@H](C(=O)N[C@@H](CC(N)=O)C(=O)N[C@H](C(=O)NCC(=O)N[C@@H](CO)C(=O)N[C@@H](Cc1c[nH]cn1)C(=O)N[C@H](C(=O)N[C@@H](Cc1ccc(O)cc1)C(N)=O)[C@@H](C)O)C(C)C)[C@@H](C)O
B2: N-alpha-[(S)-4-Carboxy-4-(19-carboxynonadecanoylamino)butyryl]-[His1,Glu14,Arg17,Ser21,Ser28,Ser29,His35]-pramlintide (peptide)
peptide: X1-HCNTATCATQRLAEFLRHSSSNFGPILSSTNVGSHTY-NH2
modifications: disulfide 2-7
SMILES: CC[C@H](C)[C@H](NC(=O)[C@@H]1CCCN1C(=O)CNC(=O)[C@H](Cc1ccccc1)NC(=O)[C@H](CC(N)=O)NC(=O)[C@H](CO)NC(=O)[C@H](CO)NC(=O)[C@H](CO)NC(=O)[C@H](Cc1c[nH]cn1)NC(=O)[C@H](CCCNC(=N)N)NC(=O)[C@H](CC(C)C)NC(=O)[C@H](Cc1ccccc1)NC(=O)[C@H](CCC(=O)O)NC(=O)[C@H](C)NC(=O)[C@H](CC(C)C)NC(=O)[C@H](CCCNC(=N)N)NC(=O)[C@H](CCC(N)=O)NC(=O)[C@@H](NC(=O)[C@H](C)NC(=O)[C@@H]1CSSC[C@H](NC(=O)[C@H](Cc2c[nH]cn2)NC(=O)CC[C@H](NC(=O)CCCCCCCCCCCCCCCCCCC(=O)O)C(=O)O)C(=O)N[C@@H](CC(N)=O)C(=O)N[C@@H]([C@@H](C)O)C(=O)N[C@@H](C)C(=O)N[C@@H]([C@@H](C)O)C(=O)N1)[C@@H](C)O)C(=O)N[C@@H](CC(C)C)C(=O)N[C@@H](CO)C(=O)N[C@@H](CO)C(=O)N[C@H](C(=O)N[C@@H](CC(N)=O)C(=O)N[C@H](C(=O)NCC(=O)N[C@@H](CO)C(=O)N[C@@H](Cc1c[nH]cn1)C(=O)N[C@H](C(=O)N[C@@H](Cc1ccc(O)cc1)C(N)=O)[C@@H](C)O)C(C)C)[C@@H](C)O
B3: N-alpha-[(S)-4-Carboxy-4-(19-carboxynonadecanoylamino)butyryl]-[Glu14,His17,Arg35]-pramlintide (peptide)
peptide: {C20 diacid-γGlu}-KCNTATCATQRLAEFLHHSSNNFGPILPPTNVGSRTY-NH2
modifications: disulfide 2-7
SMILES: CC[C@H](C)[C@H](NC(=O)[C@@H]1CCCN1C(=O)CNC(=O)[C@H](Cc1ccccc1)NC(=O)[C@H](CC(N)=O)NC(=O)[C@H](CC(N)=O)NC(=O)[C@H](CO)NC(=O)[C@H](CO)NC(=O)[C@H](Cc1c[nH]cn1)NC(=O)[C@H](Cc1c[nH]cn1)NC(=O)[C@H](CC(C)C)NC(=O)[C@H](Cc1ccccc1)NC(=O)[C@H](CCC(=O)O)NC(=O)[C@H](C)NC(=O)[C@H](CC(C)C)NC(=O)[C@H](CCCNC(=N)N)NC(=O)[C@H](CCC(N)=O)NC(=O)[C@@H](NC(=O)[C@H](C)NC(=O)[C@@H]1CSSC[C@H](NC(=O)[C@H](CCCCN)NC(=O)CC[C@H](NC(=O)CCCCCCCCCCCCCCCCCCC(=O)O)C(=O)O)C(=O)N[C@@H](CC(N)=O)C(=O)N[C@@H]([C@@H](C)O)C(=O)N[C@@H](C)C(=O)N[C@@H]([C@@H](C)O)C(=O)N1)[C@@H](C)O)C(=O)N[C@@H](CC(C)C)C(=O)N1CCC[C@H]1C(=O)N1CCC[C@H]1C(=O)N[C@H](C(=O)N[C@@H](CC(N)=O)C(=O)N[C@H](C(=O)NCC(=O)N[C@@H](CO)C(=O)N[C@@H](CCCNC(=N)N)C(=O)N[C@H](C(=O)N[C@@H](Cc1ccc(O)cc1)C(N)=O)[C@@H](C)O)C(C)C)[C@@H](C)O
B4: N-alpha-[(S)-4-Carboxy-4-(19-carboxynonadecanoylamino)butyryl]-[Glu14,His17,Lys35]-pramlintide (peptide)
peptide: {C20 diacid-γGlu}-KCNTATCATQRLAEFLHHSSNNFGPILPPTNVGSKTY-NH2
modifications: disulfide 2-7; not fully specified; printed as N-alpha-[(S)-4-Carboxy-4-(19-carboxynonadecanoylamino)butyryl]-[Glu14,His17,Lys35]-pramlintide
B5: N-alpha-[(S)-4-Carboxy-4-(19-carboxynonadecanoylamino)butyryl]-[Glu14,His17,His36]-pramlintide (peptide)
peptide: {C20 diacid-γGlu}-KCNTATCATQRLAEFLHHSSNNFGPILPPTNVGSNHY-NH2
modifications: disulfide 2-7; not fully specified; printed as N-alpha-[(S)-4-Carboxy-4-(19-carboxynonadecanoylamino)butyryl]-[Glu14,His17,His36]-pramlintide
B6: N-alpha-[(S)-4-Carboxy-4-(19-carboxynonadecanoylamino)butyryl]-[Glu14,His17,His34]-pramlintide (peptide)
peptide: {C20 diacid-γGlu}-KCNTATCATQRLAEFLHHSSNNFGPILPPTNVGHNTY-NH2
modifications: disulfide 2-7
SMILES: CC[C@H](C)[C@H](NC(=O)[C@@H]1CCCN1C(=O)CNC(=O)[C@H](Cc1ccccc1)NC(=O)[C@H](CC(N)=O)NC(=O)[C@H](CC(N)=O)NC(=O)[C@H](CO)NC(=O)[C@H](CO)NC(=O)[C@H](Cc1c[nH]cn1)NC(=O)[C@H](Cc1c[nH]cn1)NC(=O)[C@H](CC(C)C)NC(=O)[C@H](Cc1ccccc1)NC(=O)[C@H](CCC(=O)O)NC(=O)[C@H](C)NC(=O)[C@H](CC(C)C)NC(=O)[C@H](CCCNC(=N)N)NC(=O)[C@H](CCC(N)=O)NC(=O)[C@@H](NC(=O)[C@H](C)NC(=O)[C@@H]1CSSC[C@H](NC(=O)[C@H](CCCCN)NC(=O)CC[C@H](NC(=O)CCCCCCCCCCCCCCCCCCC(=O)O)C(=O)O)C(=O)N[C@@H](CC(N)=O)C(=O)N[C@@H]([C@@H](C)O)C(=O)N[C@@H](C)C(=O)N[C@@H]([C@@H](C)O)C(=O)N1)[C@@H](C)O)C(=O)N[C@@H](CC(C)C)C(=O)N1CCC[C@H]1C(=O)N1CCC[C@H]1C(=O)N[C@H](C(=O)N[C@@H](CC(N)=O)C(=O)N[C@H](C(=O)NCC(=O)N[C@@H](Cc1c[nH]cn1)C(=O)N[C@@H](CC(N)=O)C(=O)N[C@H](C(=O)N[C@@H](Cc1ccc(O)cc1)C(N)=O)[C@@H](C)O)C(C)C)[C@@H](C)O
B7: N-alpha-[(S)-4-Carboxy-4-(19-carboxynonadecanoylamino)butyryl]-[Glu14,His17,His32]-pramlintide (peptide)
peptide: {C20 diacid-γGlu}-KCNTATCATQRLAEFLHHSSNNFGPILPPTNHGSNTY-NH2
modifications: disulfide 2-7
SMILES: CC[C@H](C)[C@H](NC(=O)[C@@H]1CCCN1C(=O)CNC(=O)[C@H](Cc1ccccc1)NC(=O)[C@H](CC(N)=O)NC(=O)[C@H](CC(N)=O)NC(=O)[C@H](CO)NC(=O)[C@H](CO)NC(=O)[C@H](Cc1c[nH]cn1)NC(=O)[C@H](Cc1c[nH]cn1)NC(=O)[C@H](CC(C)C)NC(=O)[C@H](Cc1ccccc1)NC(=O)[C@H](CCC(=O)O)NC(=O)[C@H](C)NC(=O)[C@H](CC(C)C)NC(=O)[C@H](CCCNC(=N)N)NC(=O)[C@H](CCC(N)=O)NC(=O)[C@@H](NC(=O)[C@H](C)NC(=O)[C@@H]1CSSC[C@H](NC(=O)[C@H](CCCCN)NC(=O)CC[C@H](NC(=O)CCCCCCCCCCCCCCCCCCC(=O)O)C(=O)O)C(=O)N[C@@H](CC(N)=O)C(=O)N[C@@H]([C@@H](C)O)C(=O)N[C@@H](C)C(=O)N[C@@H]([C@@H](C)O)C(=O)N1)[C@@H](C)O)C(=O)N[C@@H](CC(C)C)C(=O)N1CCC[C@H]1C(=O)N1CCC[C@H]1C(=O)N[C@H](C(=O)N[C@@H](CC(N)=O)C(=O)N[C@@H](Cc1c[nH]cn1)C(=O)NCC(=O)N[C@@H](CO)C(=O)N[C@@H](CC(N)=O)C(=O)N[C@H](C(=O)N[C@@H](Cc1ccc(O)cc1)C(N)=O)[C@@H](C)O)[C@@H](C)O

Tests used:
[1] = target: T1, human amylin 3(a) receptor (human …); test: cell-based or functional assay
[2] = target: T2, human calcitonin (a) receptor; test: cell-based or functional assay

Row | Binder | Amylin receptor human EC50 [1] | CTa receptor human EC50 [2]
1 | B1 | 0.921 nM | 0.349 nM
2 | B2 | 0.394 nM | 0.57 nM
3 | B3 | 0.098 nM | 0.104 nM
4 | B4 | 0.134 nM | 0.13 nM
5 | B5 | 0.382 nM | 0.113 nM
6 | B6 | 0.129 nM | 0.115 nM
7 | B7 | 0.487 nM | 0.124 nM
